From publication PMC11772769, “Selective cargo and membrane recognition by SNX17 regulates its interaction with Retriever” (EMBO Reports, 2024)

Target: T1, Peptide SNX17_(CT-18), Q15036
T1 chain: ASDVHGNFAFEGIGDEDL
Assay: fluorescence anisotropy
Conditions: chain shown with the change; 5-FAM-labeled SNX17CT-18 peptide; parent: LB

B1: MBP-SNX17 (full-length, wild-type), Q15036 N459A; F462A (protein)
chain: MHFSIPETESRSGDSGGSAYVAYNIHVNGVLHCRVRYSQLLGLHEQLRKEYGANVLPAFPPKKLFSLTPAEVEQRREQLEKYMQAVRQDPLLGSSETFNSFLRRAQQETQQVPTEEVSLEVLLSNGQKVLVNVLTSDQTEDVLEAVAAKLDLPDDLIGYFSLFLVREKEDGAFSFVRKLQEFELPYVSVTSLRSQEYKIVLRKSYWDSAYDDDVMENRVGLNLLYAQTVSDIERGWILVTKEQHRQLKSLQEKVSKKEFLRLAQTLRHYGYLRFDACVADFPEKDCPVVVSAGNSELSLQLRLPGQQLREGSFRVTRMRCWRVTSSVPLPSGSTSSPGRGRGEVRLELAFEYLMSKDRLQWVTITSPQAIMMSICLQSMVDELMVKKSGGSIRKMLRRRVGGTLRRSDSQQAVKSPPLLESPDATRESMVKLSSKLSAVSLRGIGSPSTDASASDVHGAFAAEGIGDEDL
Kd: 86 µM
